Data on one protein can be found in paper PMC2576564 (Frontiers in Molecular Neuroscience, 2008).

This series concerns the molecule itself. Nature of the series: SEC; Superdex 200 16/60 column, after Ni-NTA purification of the secreted protein. On the technique in general: Size exclusion chromatography separates by hydrodynamic size, large species first.

B1: extracellular domain of human DPP6-L (residues 117–865) (domain or fragment)
chain: not shown
modifications: glycosylated
By stoichiometry N is commonly meant a count of units in the complex or per binding partner. On to B1, for which the “stoichiometry N” value is 2.
